Source: patent publication US20250388646A1

What was measured:
Assay in all cases: cell-based or functional assay
[1] = biological target: FAS-(CD27) Fas redirector
FAS-(41BB) construct = FAS-(41BB) construct (UniProt Q07011)
[2] = biological target: FAS-(MyD88-CD40) Fas redirector
[3] = biological target: dominant negative Fas receptor (dnFAS)

Measured: percentage of viable cells after 24 hours of exposure to CH11

FAS-(CD27) Fas redirector, sequence (chain, as listed by the source): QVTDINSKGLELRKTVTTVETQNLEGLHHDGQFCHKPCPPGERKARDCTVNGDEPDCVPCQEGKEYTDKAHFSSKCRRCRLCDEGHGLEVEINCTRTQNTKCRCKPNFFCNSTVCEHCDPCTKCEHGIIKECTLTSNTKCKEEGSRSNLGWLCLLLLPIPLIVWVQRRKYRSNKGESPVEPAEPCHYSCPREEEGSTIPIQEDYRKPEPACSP
FAS-(MyD88-CD40) Fas redirector, sequence (chain, as listed by the source): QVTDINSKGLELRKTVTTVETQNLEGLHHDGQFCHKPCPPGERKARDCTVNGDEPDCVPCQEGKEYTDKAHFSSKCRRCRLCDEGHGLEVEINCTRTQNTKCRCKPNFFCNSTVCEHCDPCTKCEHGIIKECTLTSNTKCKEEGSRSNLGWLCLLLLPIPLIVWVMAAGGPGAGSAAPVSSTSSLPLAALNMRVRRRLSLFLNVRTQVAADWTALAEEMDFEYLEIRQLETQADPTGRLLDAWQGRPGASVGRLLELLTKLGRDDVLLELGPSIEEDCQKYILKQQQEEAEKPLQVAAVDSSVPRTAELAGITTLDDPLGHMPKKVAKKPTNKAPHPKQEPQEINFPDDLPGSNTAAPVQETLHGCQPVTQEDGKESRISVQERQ
UniProt Q07011, sequence (Q07011 other isoform, or with tags, fused parts or gaps): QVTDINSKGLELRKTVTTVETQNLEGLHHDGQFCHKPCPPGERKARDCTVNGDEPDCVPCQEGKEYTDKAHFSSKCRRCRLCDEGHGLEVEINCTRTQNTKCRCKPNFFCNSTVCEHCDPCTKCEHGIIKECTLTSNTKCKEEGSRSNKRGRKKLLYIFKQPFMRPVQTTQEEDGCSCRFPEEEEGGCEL

CH11 (Sigma-Aldrich), a Fas agonist (antibody)
> 60%: all assays above
